From US6969703B2, “Inhibitors of the ICE/ced-3 family of cysteine proteases” (Idun Pharmaceuticals, Inc., priority 2000, dated 2005) come the findings set out here.

Experiment [1] deals with T1, Csp-3 (UniProt P42574 29-277, limits assumed).
T1 sequence (looked up): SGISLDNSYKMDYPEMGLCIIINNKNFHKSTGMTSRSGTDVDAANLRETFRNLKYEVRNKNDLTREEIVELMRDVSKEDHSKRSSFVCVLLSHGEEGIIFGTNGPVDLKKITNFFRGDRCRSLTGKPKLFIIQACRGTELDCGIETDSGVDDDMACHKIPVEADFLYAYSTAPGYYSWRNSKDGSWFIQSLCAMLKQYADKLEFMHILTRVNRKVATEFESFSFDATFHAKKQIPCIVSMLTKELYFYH
The experiment in a line: continuous fluorogenic enzyme assay, 60 min, fit of AMC product formation to irreversible competitive inhibition model.

Experiment [2] has as its target T2, Csp-1 (UniProt P29466 120-297; P29466 317-404, limits assumed).
T2 sequence (looked up) 1: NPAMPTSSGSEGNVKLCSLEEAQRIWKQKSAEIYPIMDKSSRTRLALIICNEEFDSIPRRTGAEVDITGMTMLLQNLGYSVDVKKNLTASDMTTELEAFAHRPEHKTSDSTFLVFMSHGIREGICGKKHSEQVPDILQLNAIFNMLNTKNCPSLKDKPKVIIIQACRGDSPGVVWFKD
T2 sequence (looked up) 2: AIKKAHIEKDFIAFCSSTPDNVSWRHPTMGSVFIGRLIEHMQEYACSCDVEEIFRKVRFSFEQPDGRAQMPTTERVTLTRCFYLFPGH
Described as above.

Experiment [3] has as its target T3, Csp-6 (UniProt P55212 24-179; P55212 194-293, limits assumed).
T3 sequence (looked up) 1: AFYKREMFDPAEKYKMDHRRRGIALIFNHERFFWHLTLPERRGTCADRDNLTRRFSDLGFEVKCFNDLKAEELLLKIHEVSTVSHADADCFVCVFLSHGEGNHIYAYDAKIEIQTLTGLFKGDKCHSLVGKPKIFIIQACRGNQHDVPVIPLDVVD
T3 sequence (looked up) 2: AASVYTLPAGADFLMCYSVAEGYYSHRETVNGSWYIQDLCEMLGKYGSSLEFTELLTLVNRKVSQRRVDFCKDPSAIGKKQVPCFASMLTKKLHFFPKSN
The description is as above.

Experiment [4] deals with T4, Csp-8 (UniProt Q14790 217-374; Q14790 385-479, limits assumed). The experiment is described as above.
Experiment [5] addresses T5, Csp-9 (Homo sapiens, UniProt P55211).
T5 sequence (P55211 1-315 limits assumed): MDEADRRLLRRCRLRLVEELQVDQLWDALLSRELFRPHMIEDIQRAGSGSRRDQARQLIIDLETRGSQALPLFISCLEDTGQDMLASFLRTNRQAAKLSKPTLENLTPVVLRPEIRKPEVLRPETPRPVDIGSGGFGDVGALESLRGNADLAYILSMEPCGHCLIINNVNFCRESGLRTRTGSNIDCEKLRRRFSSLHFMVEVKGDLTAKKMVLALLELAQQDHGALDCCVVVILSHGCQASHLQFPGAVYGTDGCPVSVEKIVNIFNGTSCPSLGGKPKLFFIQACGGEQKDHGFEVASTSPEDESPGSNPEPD
The experiment in a line: Fluorescence enzyme assay, IC50 determination. To be noted: 30 minutes preincubation at room temperature, AMC substrate. Format: biochemical.

Experiment [6] concerns the target T6, Csp-1 (Homo sapiens, UniProt P29466).
T6 sequence (P29466 120-297 limits assumed): T2 sequence (looked up) 1
The experiment in a line: Continuous assay for dissociation constant Ki of irreversible inhibitors. The class given is biochemical. To be noted: continuous assay for sixty minutes, reaction initiated by adding enzyme to substrate-inhibitor mixture. From the text: (§1) For the irreversible inhibition of a ICE/ced-3 Family Protease enzyme with a competitive irreversible inhibitor; using the model represented by the following formulas: [drawing 16] The product formation at time t may be expressed as: [formula] where E, I, EI and E-I denote the active enzyme, inhibitor, non-covalent enzyme-inhibitor complex and covalent enzyme-inhibitor adduct, respectively. The Ki value is the overall dissociation constant of the reversible binding steps, and k3 is the irreversible rate constant. The [S] and Ks values are the substrate concentration and dissociation constant of the substrate bound to the enzyme, respectively. [E]^T is the total enzyme concentration.
(§2) The equations set forth in Example I were also used determine the Ki values of inhibitor (i.e., Compound No. 1) bound to a ICE/ced-3 family protease. Thus, a continuous assay was run for sixty minutes at various concentrations of the inhibitor and the substrate. The assay was formulated essentially the same as described above for generating the data in Table 2, except that the reaction was initiated by adding the enzyme to the substrate-inhibitor mixture. The Ki values were obtained by simulating the product AMC formation as a function of time according to Equation I. The results of this second assay are set forth below in Table 3, wherein the reference compound was Cbz-ValAlaAsp-CH2F.

Experiment [7] concerns the target T7, Csp-6 (Homo sapiens, UniProt P55212).
T7 sequence (P55212 24-179 limits assumed): T3 sequence (looked up) 1
Described as above. Format: biochemical. To be noted: continuous assay for sixty minutes, reaction initiated by adding enzyme to substrate-inhibitor mixture.
Text: as §1, §2

Experiment [8] deals with T8, Csp-3 (Homo sapiens, UniProt P42574).
T8 sequence (P42574 29-175 limits assumed): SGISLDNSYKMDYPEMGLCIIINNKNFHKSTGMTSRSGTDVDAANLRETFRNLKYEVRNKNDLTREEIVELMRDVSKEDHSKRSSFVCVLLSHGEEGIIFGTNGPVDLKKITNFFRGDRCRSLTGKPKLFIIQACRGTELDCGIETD
The experiment is described as above. Format: biochemical. Particulars: continuous assay for sixty minutes, reaction initiated by adding enzyme to substrate-inhibitor mixture.
Text: as §1, §2

Experiment [9] addresses T9, Csp-8 (Homo sapiens, UniProt Q14790). Described as above. Format: biochemical. To be noted: continuous assay for sixty minutes, reaction initiated by adding enzyme to substrate-inhibitor mixture.
Text: as §1, §2

The target of experiment [10] is T6, Csp-1. In words: Fluorescence enzyme assay, IC50 determination. Format: biochemical. Particulars: recombinant enzyme, 30 minutes preincubation at room temperature, AMC substrate. On the procedure: (§3) Fluorescence enzyme assays detecting the activity of the compounds of Formula I utilizing the recombinant ICE and CPP32 enzymes are performed essentially according to Thornberry et al. (Nature 356:768:774 (1992)) and Nicholson et al. (Nature 376:37-43 (1995)) respectively, (herein incorporated by reference) in 96 well microtiter plates. The substrate is Acetyl-Tyr-Val-Ala-Asp-amino-4-methylcoumarin (AMC) (SEQ ID NO: 1) for the ICE assay and Acetyl-Asp-Glu-Val-Asp-amino-4-methylcoumarin (SEQ ID NO: 2) for the CPP32, Mch2, Mch3 and Mch5 assays. Enzyme reactions are run in ICE buffer (25 mM HEPES, 1 mM EDTA, 0.1% CHAPS, 10% sucrose, pH 7.5) containing 2 mM DTT at room temperature in duplicate. The assays are performed by mixing the following components: • 50 μL ICE, Mch2, Mch5, CPP32 (18.8, 38, 8.1 and 0.153 nM concentrations, respectively) or Mch3 (1 unit) enzyme in ICE buffer containing either 8.0 (ICE, Mch2, Mch3, CPP32) or 20 (Mch5) mM DTT; • 50 μL compound of Formula I or ICE buffer (control); and • 100 μL of 20 μM substrate.
(§4) The enzyme and the compound of Formula I to be assayed are allowed to preincubate in the microtitre plate wells for 30 minutes at room temperature prior to the addition of substrate to initiate the reaction. Fluorescent AMC product formation is monitored for one hour at room temperature by measuring the fluorescence emission at 460 nm using an excitation wavelength of 360 nm. The fluorescence change in duplicate (control) wells are averaged and the mean values are plotted as a function of inhibitor concentration to determine the inhibitor concentration producing 50% inhibition (IC50).
(§5) The activity of a representative compound of this invention (i.e., Compound No. 1) was evaluated according to the procedures disclosed in Example 1. More specifically, the IC50 and Ki for Compound No. 1 were determined as set forth above. The IC50 results are provided in Table 2, as run against Cbz-ValAlaAsp-H as a reference control.

For experiment [11], the target named is T7, Csp-6. The experiment in a line: Fluorescence enzyme assay, IC50 determination. Particulars: 30 minutes preincubation at room temperature, AMC substrate. The class given is biochemical. The method, then:
as §3, §4, §5

The target in experiment [12] is T8, Csp-3. The experiment in a line: Fluorescence enzyme assay, IC50 determination. The class given is biochemical. Particulars: recombinant enzyme, 30 minutes preincubation at room temperature, AMC substrate. On the procedure: as §3, §4, §5
Experiment [13] has as its target T9, Csp-8. In words: Fluorescence enzyme assay, IC50 determination. Format: biochemical. To be noted: 30 minutes preincubation at room temperature, AMC substrate. The method, then:
as §3, §4, §5

Experiment [14] concerns the target T10, Csp-7 (Homo sapiens, UniProt P55210).
T10 sequence (P55210 24-198 limits assumed): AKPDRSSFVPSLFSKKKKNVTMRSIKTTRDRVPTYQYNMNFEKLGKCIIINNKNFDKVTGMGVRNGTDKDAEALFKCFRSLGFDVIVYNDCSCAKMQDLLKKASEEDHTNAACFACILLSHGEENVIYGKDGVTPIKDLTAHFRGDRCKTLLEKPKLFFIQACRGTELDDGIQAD
In words: Fluorescence enzyme assay, IC50 determination. Format: biochemical. To be noted: 30 minutes preincubation at room temperature, AMC substrate. The method, then: as §3, §4, §5

In experiment [15] the target is T1, Csp-3. In words: cell-based or functional assay.
Experiment [16] concerns the target T11, Csp-9 (UniProt P55211 1-416, limits assumed).
T11 sequence (looked up): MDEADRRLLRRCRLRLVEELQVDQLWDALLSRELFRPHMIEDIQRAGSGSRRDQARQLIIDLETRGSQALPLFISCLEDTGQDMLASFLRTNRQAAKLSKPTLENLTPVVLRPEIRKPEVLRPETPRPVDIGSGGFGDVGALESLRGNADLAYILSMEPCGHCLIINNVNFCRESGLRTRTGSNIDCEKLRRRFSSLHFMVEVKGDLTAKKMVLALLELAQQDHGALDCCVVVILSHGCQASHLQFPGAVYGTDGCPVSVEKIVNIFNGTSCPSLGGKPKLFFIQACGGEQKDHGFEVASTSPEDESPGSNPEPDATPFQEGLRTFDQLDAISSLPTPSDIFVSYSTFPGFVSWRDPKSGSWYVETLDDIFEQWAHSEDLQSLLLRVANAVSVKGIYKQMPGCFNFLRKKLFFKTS
In words: cell-based or functional assay.

Experiment [17] concerns the target T2, Csp-1. In words: cell-based or functional assay.
Experiment [18] deals with T3, Csp-6. The experiment in a line: cell-based or functional assay.
Experiment [19] addresses T4, Csp-8. In words: cell-based or functional assay.
Experiment [20] deals with T12, Csp-7 (UniProt P55210 24-303, limits assumed).
T12 sequence (looked up): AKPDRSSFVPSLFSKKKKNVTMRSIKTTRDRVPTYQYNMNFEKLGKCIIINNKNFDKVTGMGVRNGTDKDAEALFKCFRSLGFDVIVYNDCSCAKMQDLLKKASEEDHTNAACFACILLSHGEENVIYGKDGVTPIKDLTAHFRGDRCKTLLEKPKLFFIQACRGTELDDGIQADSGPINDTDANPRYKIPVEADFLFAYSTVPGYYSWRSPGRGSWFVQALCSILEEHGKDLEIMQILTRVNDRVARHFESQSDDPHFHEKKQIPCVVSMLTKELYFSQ
The experiment in a line: cell-based or functional assay.

Primed or numbered codes have the meaning given here. The star is where a group is joined. aldehyde′ = C-terminal aldehyde (aspartyl aldehyde); Cbz = O=C(OCc1ccccc1)*; CH2F = FC* Where only a bound is given, the exact number is not on record here.

In general, IC50 refers to the concentration that inhibits the measured activity by half.

T4 sequence (Q14790 217-374 limits assumed, form in doubt, chain 1 of 2): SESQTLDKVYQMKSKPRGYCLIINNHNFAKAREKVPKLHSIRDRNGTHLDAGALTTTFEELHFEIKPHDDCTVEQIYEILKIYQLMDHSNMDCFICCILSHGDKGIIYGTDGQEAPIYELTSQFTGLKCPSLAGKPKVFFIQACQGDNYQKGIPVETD
T4 sequence (Q14790 385-479 limits assumed, form in doubt, chain 2 of 2): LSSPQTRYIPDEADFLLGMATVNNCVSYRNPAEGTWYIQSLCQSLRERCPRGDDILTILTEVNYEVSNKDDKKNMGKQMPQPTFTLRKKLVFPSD
T9 sequence (Q14790 217-374 limits assumed): as the sequence (Q14790 217-374 limits assumed, form in doubt, chain 1 of 2) above

In the case of Cbz-Val-Ala-Asp-CH2F, the Ki with Csp-3 [1] came out at 820 nM; with Csp-1 [2], 15 nM; in the experiment with Csp-6 [3], 594 nM; in the experiment with Csp-8 [4] it was 18 nM.
Turning to `CC(C)C(NC(=O)COc1cccc2ccccc12)C(=O)NC(CC(=O)NS(C)(=O)=O)C(=O)COc1c(F)c(F)cc(F)c1F` (centres unmarked) [Compound 1], the IC50 at Csp-9 [5] stood at 5 nM; at Csp-1 [10], 4 nM; on Csp-6 [11], 2 nM; at Csp-3 [12] it was 2 nM; on Csp-8 [13], 6 nM; against Csp-7 [14], 4 nM. Moreover, the Ki on Csp-1 [6] came out at 200 nM; at Csp-6 [7] it was 400 nM; on Csp-3 [8], 80 nM; at Csp-8 [9] it was 600 nM.
For the molecule Cbz-Val-Ala-Asp-{aldehyde′} [Cbz-ValAlaAsp-H], the “IC50 (µM), inhibition of enzyme activity, fluorogenic substrate” value in the experiment with Csp-3 [15] is 47 µM; in the experiment with Csp-9 [16] it was 0.87 µM; with Csp-1 [17], 0.064 µM; with Csp-6 [18] it was over 10 µM; with Csp-8 [19] it was 2.96 µM; with Csp-7 [20], over 10 µM.
